For this experiment, the target named is SecY(S329C)EG (E. coli) (UniProt P0AGA2).

Regarding MKKTAIAIAVALAGFATVAQC, the characteristic lifetime of the open channels at φ = −140 mV after cross-linking by KTT came to 14 s.

Values taken from publication PMC7023257.
